Consider two molecules from paper PMC2929661.

Holding throughout (assay): SPR
In assay [1] the target is Human angiostatin kringles 1–5 (K1–5) (human).
For assay [2] the target is unchanged. This is another data set of the same source.
Assay [3] concerns the target Recombinant yeast F1-ATPase (F1-ATP synthase protein complex) (yeast) (UniProt P07251).
For assay [4] the target is unchanged. The source holds these as a separate data set.

Several values for one entry are separate records, joined by “and”; a condition that tells them apart may be missing. Equal values may be shown once. Read-outs that look alike come from different tables or passages of the source.

“Recombinant yeast F1-ATPase (F1-ATP synthase protein complex) (from UniProt P07251 36-545; P00830 34-511; P38077 34-311)”: the Kd in assay [1] lay in the range of 130 to 237 nM. Also, in assay [2], the Ka is 6.5e+06 M⁻¹ and 5.1e+06 M⁻¹; the Kd is 154 nM and 137 nM and 195 nM; the koff is 0.0002 s⁻¹ and 0.00019 s⁻¹; the kon is 1300 M⁻¹ s⁻¹ and 960 M⁻¹ s⁻¹.

B1: Pigment epithelium-derived factor (PEDF), human recombinant (ligand)
chain: QNPASPPEEGSPDPDSTGALVEEEDPFFKVPVNKLAAAVSNFGYDLYRVRSSTSPTTNVLLSPLSVATALSALSLGAEQRTESIIHRALYYDLISSPDIHGTYKELLDTVTAPQKNLKSASRIVFEKKLRIKSSFVAPLEKSYGTRPRVLTGNPRLDLQEINNWVQAQMKGKLARSTKEIPDEISILLLGVAHFKGQWVTKFDSRKTSLEDFYLDEERTVRVPMMSDPKAVLRYGLDSDLSCKIAQLPLTGSMSIIFFLPLKVTQNLTLIEESLTSEFIHDIDRELKTVQAVLTVPKLKLSYEGEVTKSLQEMKLQSLFDSPDFSKITGKPIKLTQVEHRAGFEWNEDGAGTTPSPGLQPAHLTFPLDYHLNQPFIFVLRDTDTGALLFIGKILDPRGP
B1: the IC50 in assay [3] came out at 17.3 nM; in assay [4] it was 11.8 nM.
